{"source": "paper PMC8187723", "data": [{"biological_target": "recombinant human MXRA8-Fc fusion protein (UniProt Q9BRK3)", "details": "37 °C; n = 2; parent: est. 19; read off a plot", "units": {"Kd": "nM"}, "values": [{"substance": "Ross River virus T48, CPER-recovered wild type, purified virus (E1/E2 envelope glycoproteins on the virion) E1:N141Q", "Kd": 61}, {"substance": "Ross River virus T48, CPER-recovered wild type, purified virus (E1/E2 envelope glycoproteins on the virion) E1:P226A", "Kd": 20}, {"substance": "Ross River virus T48, CPER-recovered wild type, purified virus (E1/E2 envelope glycoproteins on the virion) E1:S98A", "Kd": 30}, {"substance": "Ross River virus T48, CPER-recovered wild type, purified virus (E1/E2 envelope glycoproteins on the virion) E2:A71D", "Kd": 110}, {"substance": "Ross River virus T48, CPER-recovered wild type, purified virus (E1/E2 envelope glycoproteins on the virion) E2:H64A", "Kd": 61}]}]}
